# Test results from publication PMC3068300 (Proteins, 2010).
# B1: Mycobacterium tuberculosis Rv2704 (natural protein)
# chain: ASRTMVSSGSEFESAVGYSRAVRIGPLVVVAGTTGSGDDIAAQTRDALRRIEIALGQAGATLADVVRTRIYVTDISRWREVGEVHAQAFGKIRPVTSMVEVTALIAPGLLVEIEADAYVGSAVADRNSGAGPKDPSPAGG
# Biological target: the molecule itself
# Assay: SEC
protein,measurement,value
B1,stoichiometry N,3
